Usually stoichiometry N stands for a count of units in the complex or per binding partner.

The source of these data is paper PMC10524599, “Sensory deficit screen identifies nsf mutation that differentially affects SNARE recycling and quality control” (Cell reports, 2023).

The series concerns the molecule itself. The experiment in a line: SEC; NSF alone, reassembled to the hexamer by a final SEC run with buffer containing 1 mM ATP. (Size exclusion chromatography separates by hydrodynamic size, large species first.)

B1: I209N NSF (N-ethylmaleimide-sensitive factor, C. griseus ortholog with the I209N mutation) (enzyme)
chain: MAGRSMQAARCPTDELSLSNCAVVSEKDYQSGQHVIVRTSPNHKYIFTLRTHPSVVPGSVAFSLPQRKWAGLSIGQEIEVALYSFDKAKQCIGTMTIEIDFLQKKNIDSNPYDTDKMAAEFIQQFNNQAFSVGQQLVFSFNDKLFGLLVKDIEAMDPSILKGEPASGKRQKIEVGLVVGNSQVAFEKAENSSLNLIGKAKTKENRQSINNPDWNFEKMGIGGLDKEFSDIFRRAFASRVFPPEIVEQMGCKHVKGILLYGPPGCGKTLLARQIGKMLNAREPKVVNGPEILNKYVGESEANIRKLFADAEEEQRRLGANSGLHIIIFDEIDAICKQRGSMAGSTGVHDTVVNQLLSKIDGVEQLNNILVIGMTNRPDLIDEALLRPGRLEVKMEIGLPDEKGRLQILHIHTARMRGHQLLSADVDIKELAVETKNFSGAELEGLVRAAQSTAMNRHIKASTKVEVDMEKAESLQVTRGDFLASLENDIKPAFGTNQEDYASYIMNGIIKWGDPVTRVLDDGELLVQQTKNSDRTPLVSVLLEGPPHSGKTALAAKIAEESNFPFIKICSPDKMIGFSETAKCQAMKKIFDDAYKSQLSCVVVDDIERLLDYVPIGPRFSNLVLQALLVLLKKAPPQGRKLLIIGTTSRKDVLQEMEMLNAFSTTIHVPNIATGEQLLEALELLGNFKDKERTTIAQQVKGKKVWIGIKKLLMLIEMSLQMDPEYRVRKFLALLREEGASPLDFD
notes: legend gives 82.8 kDa monomeric, 496.8 kDa hexameric; also called NSF I209N; I209N NSF protein; source: E. coli BL21(DE3)-RIL, purified (Nickel-NTA, SEC; monomerized without ATP, reassembled by SEC with 1 mM ATP)
Take B1: the “stoichiometry N” value came to 6.
